This is an account of results in patent EP4578875A1.

Numbering of substitutions follows the chain as printed. Names and notes keep the numbering of the source.

B1: anti-CD3 VH-Y61C mutant conjugated with PEG5K, after activation (antibody, V domains shown)
VH: EVQLVESGGGLVQPGGSLRLSCAASGFTFSTYAMNWVRQAPGKGLEWVGRIRSKYNNYATCYADSVKDRFTISRDDSKNSLYLQMNSLKTEDTAVYYCARHGNFGNSYVSWFAYWGQGTLVTVSS
VL: QTVVTQEPSLTVSPGGTVTLTCRSSTGAVTTSNYANWVQQKPGQAPRGLIGGTNKRAPGVPARFSGSLLGDKAALTLLGAQPEDEAEYFCALWYSNLWVFGGGTKLTVL
modifications: Cys 61 with what is left of the linker after activation (PEG5K blocker released); structure not given
B2: anti-CD3 VH-Y61C mutant conjugated with PEG40K, after activation (antibody, V domains shown)
VH: B1 VH
VL: B1 VL
modifications: Cys 61 with what is left of the linker after activation (PEG40K blocker released); structure not given
B3: anti-CD3 VH-Y61C mutant conjugated with PEG10K, after activation (antibody, V domains shown)
VH: B1 VH
VL: B1 VL
modifications: Cys 61 with what is left of the linker after activation (PEG10K blocker released); structure not given
B4: anti-CD3 VH-Y61C mutant conjugated with PEG20K, after activation (antibody, V domains shown)
VH: B1 VH
VL: B1 VL
modifications: Cys 61 with what is left of the linker after activation (PEG20K blocker released); structure not given
B5: anti-CD3 antibody mutant VH-M34C (antibody, V domains shown)
VH: B1 VH with M34C, C61Y
VL: B1 VL
B6: anti-CD3 antibody mutant VH-W111C (antibody, V domains shown)
VH: B1 VH with C61Y, W111C
VL: B1 VL
B7: anti-CD3 antibody mutant VH-F104C (antibody, V domains shown)
VH: B1 VH with C61Y, F104C
VL: B1 VL
B8: anti-CD3 antibody mutant VH-Y61C (antibody, V domains shown)
VH: B1 VH
VL: B1 VL
B9: anti-CD3 antibody mutant VL-N54C (antibody, V domains shown)
VH: B1 VH with C61Y
VL: B1 VL with N54C
B10: anti-CD3 antibody mutant VL-W93C (antibody, V domains shown)
VH: B1 VH with C61Y
VL: B1 VL with W93C
B11: anti-CD3 antibody mutant VL-N96C (antibody, V domains shown)
VH: B1 VH with C61Y
VL: B1 VL with N96C
B12: anti-CD3 antibody mutant VL-R56C (antibody, V domains shown)
VH: B1 VH with C61Y
VL: B1 VL with R56C
B13: anti-CD3 antibody mutant VL-Y34C (antibody, V domains shown)
VH: B1 VH with C61Y
VL: B1 VL with Y34C
B14: anti-CD3 antibody mutant VH-S53C (antibody, V domains shown)
VH: B1 VH with S53C, C61Y
VL: B1 VL
B15: anti-CD3 antibody mutant VL-K55C (antibody, V domains shown)
VH: B1 VH with C61Y
VL: B1 VL with K55C
B16: anti-CD3 antibody mutant VL-Y94C (antibody, V domains shown)
VH: B1 VH with C61Y
VL: B1 VL with Y94C
B17: anti-CD3 antibody mutant VH-Y61C conjugated with Molecule I (+20K) (antibody, V domains shown)
VH: B1 VH
VL: B1 VL
modifications: Molecule I (+20K; cleavable linker with PEG20K, shown only as a drawing) conjugated on Cys 61
B18: anti-CD3 VH-Y61C mutant conjugated with cleavable linker and R1 = PEG40K (antibody, V domains shown)
VH: B1 VH
VL: B1 VL
modifications: cleavable linker peptide P with blocker PEG40K on Cys 61
B19: anti-CD3 VH-Y61C mutant conjugated with cleavable linker and R1 = PEG5K (antibody, V domains shown)
VH: B1 VH
VL: B1 VL
modifications: cleavable linker peptide P with blocker PEG5K on Cys 61
B20: anti-CD3 VH-Y61C mutant conjugated with cleavable linker and R1 = PEG10K (antibody, V domains shown)
VH: B1 VH
VL: B1 VL
modifications: cleavable linker peptide P with blocker PEG10K on Cys 61
B21: anti-CD3 antibody mutant VL-W93C conjugated with Molecule I (+20K) (antibody, V domains shown)
VH: B1 VH with C61Y
VL: B1 VL with W93C
modifications: Molecule I (+20K, shown only as a drawing) conjugated on Cys 93
B22: anti-CD3 antibody mutant VL-Y34C conjugated with Molecule I (+20K) (antibody, V domains shown)
VH: B1 VH with C61Y
VL: B1 VL with Y34C
modifications: Molecule I (+20K, shown only as a drawing) conjugated on Cys 34
B23: anti-CD3 antibody mutant VL-K55C conjugated with Molecule I (+20K) (antibody, V domains shown)
VH: B1 VH with C61Y
VL: B1 VL with K55C
modifications: Molecule I (+20K, shown only as a drawing) conjugated on Cys 55
B24: anti-CD3 antibody mutant VL-R56C conjugated with Molecule I (+20K) (antibody, V domains shown)
VH: B1 VH with C61Y
VL: B1 VL with R56C
modifications: Molecule I (+20K, shown only as a drawing) conjugated on Cys 56
B25: anti-CD3 antibody mutant VL-Y94C conjugated with Molecule I (+20K) (antibody, V domains shown)
VH: B1 VH with C61Y
VL: B1 VL with Y94C
modifications: Molecule I (+20K, shown only as a drawing) conjugated on Cys 94
B26: anti-CD3 antibody mutant VL-N96C conjugated with Molecule I (+20K) (antibody, V domains shown)
VH: B1 VH with C61Y
VL: B1 VL with N96C
modifications: Molecule I (+20K, shown only as a drawing) conjugated on Cys 96
B27: anti-CD3 antibody mutant VL-N54C conjugated with Molecule I (+20K) (antibody, V domains shown)
VH: B1 VH with C61Y
VL: B1 VL with N54C
modifications: Molecule I (+20K, shown only as a drawing) conjugated on Cys 54
B28: anti-CD3 antibody mutant VH-W111C conjugated with Molecule I (+20K) (antibody, V domains shown)
VH: B1 VH with C61Y, W111C
VL: B1 VL
modifications: Molecule I (+20K, shown only as a drawing) conjugated on Cys 111
B29: anti-CD3 antibody mutant VH-F104C conjugated with Molecule I (+20K) (antibody, V domains shown)
VH: B1 VH with C61Y, F104C
VL: B1 VL
modifications: Molecule I (+20K, shown only as a drawing) conjugated on Cys 104
B30: anti-CD3 antibody mutant VH-M34C conjugated with Molecule I (+20K) (antibody, V domains shown)
VH: B1 VH with M34C, C61Y
VL: B1 VL
modifications: Molecule I (+20K, shown only as a drawing) conjugated on Cys 34
B31: anti-CD3 antibody mutant VH-S53C conjugated with Molecule I (+20K) (antibody, V domains shown)
VH: B1 VH with S53C, C61Y
VL: B1 VL
modifications: Molecule I (+20K, shown only as a drawing) conjugated on Cys 53

Sequence of CD3 (antibody antigen coated on the ELISA plate in Examples 1 to 3) (Homo sapiens (Human)) (P07766 23-126 limits assumed): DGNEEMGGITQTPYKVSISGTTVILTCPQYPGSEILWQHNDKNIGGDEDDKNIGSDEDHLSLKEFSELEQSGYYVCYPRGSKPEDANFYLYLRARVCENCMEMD

One assay has as its target CD3 (antibody antigen coated on the ELISA plate in Examples 1 to 3) (Homo sapiens (Human)) (UniProt P07766). The experiment in a line: binding activity after activation of the conjugate; method not described.
B1 displayed a Recovery of binding force after activation (%) of 100%. As to B2, the Recovery of binding force after activation (%) came to 100%.

Molecule B3 displayed a Recovery of binding force after activation (%) of 100%. On the same count and under the same terms, the value for B4 was 100%.

The target is the same in a further assay. The experiment in a line: ELISA, antigen coated, anti-human IgG-HRP; against wild-type anti-CD3 antibody.
With B5, the Binding strength of mutants (EC50 mutant/EC50 wild-type) was 1.1.

For the molecule B6, the Binding strength of mutants (EC50 mutant/EC50 wild-type) worked out at 2. Same read-out and setting: for B7 the value was 1. Same read-out and setting: for B8 the value was 5.1; for B9, 1.

On to B10, for which the Binding strength of mutants (EC50 mutant/EC50 wild-type) amounted to 1.8. Same read-out and setting: the value for B11 was 1. The same measure, in the same setting: the value for B12 was 1.5; that for B13 was 1.2.

In turn, B14 returned a Binding strength of mutants (EC50 mutant/EC50 wild-type) of 1.2. The molecule B15 displayed a Binding strength of mutants (EC50 mutant/EC50 wild-type) of 0.9.

On to B16, for which the Binding strength of mutants (EC50 mutant/EC50 wild-type) stood at 1.

The next assay shares this target. The assay can be described thus: binding activity after conjugation with different R1; method not described.
For B17, the Blocking fold after conjugation was 400 fold.

With B18, the Blocking fold after conjugation is 500 fold. Still for that read-out and setting: the value for B19 was 10 fold; that for B20 was 20 fold.

Another assay shares this target. The experiment in a line: binding activity of the conjugated mutant compared with the wild-type antibody (ELISA as in Example 1).
The molecule B21 yielded a Blocking fold after conjugation (+20K) of 5 fold. In turn, B17 gave a Blocking fold after conjugation (+20K) of 400 fold. B22: the Blocking fold after conjugation (+20K) was 8 fold.

As for B23, the Blocking fold after conjugation (+20K) came out at 5 fold.

As to B24, the Blocking fold after conjugation (+20K) stood at 6 fold. In turn, B25 yielded a Blocking fold after conjugation (+20K) of 30 fold.

In turn, B26 displayed a Blocking fold after conjugation (+20K) of 2 fold.

For B27, the Blocking fold after conjugation (+20K) was found to be 12 fold.

In turn, B28 had a Blocking fold after conjugation (+20K) of 6 fold. Same read-out and setting: the value for B29 was 13 fold.

The molecule B30 displayed a Blocking fold after conjugation (+20K) of 5 fold. Same read-out and setting: the value for B31 was 3 fold.
